In the experiment the target is T1, human DLL3 (immobilized human DLL3 or h293-hDLL3 cells) (human, UniProt Q9NYJ7 27-492, limits assumed).
T1 construct: the sentence says 'immobilized human DLL3 or h293-hDLL3 cells'
T1 sequence: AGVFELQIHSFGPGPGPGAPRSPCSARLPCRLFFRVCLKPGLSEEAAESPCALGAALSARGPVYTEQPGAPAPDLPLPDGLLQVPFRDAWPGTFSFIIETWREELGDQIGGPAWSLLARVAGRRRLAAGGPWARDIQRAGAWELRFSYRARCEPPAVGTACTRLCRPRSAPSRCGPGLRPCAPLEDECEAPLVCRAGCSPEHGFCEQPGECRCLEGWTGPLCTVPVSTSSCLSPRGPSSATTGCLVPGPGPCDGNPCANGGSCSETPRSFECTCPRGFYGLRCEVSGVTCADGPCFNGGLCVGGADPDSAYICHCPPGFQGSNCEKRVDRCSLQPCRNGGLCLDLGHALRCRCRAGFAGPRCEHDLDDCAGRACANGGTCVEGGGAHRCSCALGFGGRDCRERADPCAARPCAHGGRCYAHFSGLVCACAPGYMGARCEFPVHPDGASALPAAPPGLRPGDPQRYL
The experiment in a line: hybridoma screening on immobilized human DLL3 or on h293-hDLL3 cells.

Positions count from the first letter of the chain named.

B1: SC16.147 (antibody, V domains shown)
VH: QIQLVQSGPELTKPGETVKISCKASGYTFTDYSLHWVKQALGKGLKWMGWINTETGEPAYADDFKGRFAFSLETSASTAYLQINDLKNEDTTTYFCGIYDGYAMDYWGQGTSVTVSS
VL: DIQMTQTASSLSASLGDRVTISCRASQDINNYLNWYQQKPDGTVKLLIYYTSRLHSGVPSRFSGSGSGTDYSLTISILEQEDIATYFCQQGDTLPWTFGGGTKLEIK
notes: murine mAb; variable regions only
For the molecule B1, the binding result is listed as “binds”.

B2: SC16.4 (antibody, V domains shown)
VH: B1 VH with T12K, L34M, L41P, A59G, D85N, T92A, G97A, I98R
VL: B1 VL with A8T, N30S, I77N, Q80L, T93M
notes: as for B1
As to B2, the binding result is “binds”.

B3: SC16.143 (antibody, V domains shown)
VH: QVQLQQSGPELVKPGASVRISCKASGYTFTSYYIHWVKQRPGQGLEWIGWIYPGNGNTKYNEKFKGKATLTADKSSSTAYMQISSLTSEDSAVYFCARERWLLLWFAYWGQGTLVTVSA
VL: DVLMTQTPLSLPVSLGDQASISCRSSQSIVHSNGNTYLEWYLQKPGQSPKLLIYKVSNRFSGVPDRFSGSGSGTDFTLKISRVEAEDLGVYYCFQGSHVPLTFGAGTKLELK
notes: as for B1
Take B3: the binding result was “binds”.

B4: SC16.15 (antibody, V domains shown)
VH: QVQLQQSGAELAKPGASVKMSCKASGYTFTRYWIHWIKQRPGQGLEWIGYINPTTVYTEFNQNFKDKATLTADKSSTTASMQLSSLTSEDSAVYYCARGGSNFFDYWGQGTTLTVSS
VL: DIQMTQSPASLAASVGETVAITCRASENIYYNLAWYQQKQGKSPQLLIYTANSLEDGVPSRFSGSGSGTQYSLKINSMQPEDSATYFCKQAYDVPPTFGGGTKLEIK
notes: as for B1
For the molecule B4, the binding result was “binds”.

B5: SC16.11 (antibody, V domains shown)
VH: QIQLVQSGPELKKPGETVKISCKASGYTFTDYSMHWVKQAPGKGLKWMGWINTETVEPTYADDFMGRFAFSLETSASTAFLQINNLENEDTATYFCARFGSYAMDYWGQGTSVTVSS
VL: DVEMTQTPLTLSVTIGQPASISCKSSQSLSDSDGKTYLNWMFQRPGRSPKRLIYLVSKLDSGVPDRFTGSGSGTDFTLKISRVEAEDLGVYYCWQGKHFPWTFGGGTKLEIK
notes: as for B1
For B5, the binding result is recorded as “binds”.

B6: SC16.7 (antibody, V domains shown)
VH: EVQLQQSGPELVKPGASVKISCKASGYSFTGYKMHWVKQSHVKSLEWIGRINPYNGATSYNQNFKDKATLTVDKSSSTAYMDLHSLTSEDSAVYFCARGDYRYDWFAYWGQGTLVTVSA
VL: NIMMTQSPSSLAVSAGEKVTMSCKSSQSVLYSSNQKNYLAWYQQKPGQSPKLLIYWASTRESGVPDRFTGSGSGTDFTLTISTVQVEDLAVYYCHQYLSSWTFGGGTKLEIK
notes: as for B1
On to B6, for which the binding result was “binds”.

B7: SC16.144 (antibody, V domains shown)
VH: QIQLVQSGPELKKPGETVKISCKASGYTFTNYGMNWVKQAPGKGLKWVGWINTYTGEPTYADDFKGRFAFSLETSASTAYLQIDNLKNEDTATYFCARVGDYVGFDYWGQGTTLTVSS
VL: SIVMTQTPKFLLVSAGDRVTITCKASQSVSNDVGWYQQKPGQSPKLLIYYASNRYNGVPDRFTGSGYGTDFTFTISTVQAEDLAVYFCQQDYSSPWTFGGGTKLEIK
notes: as for B1
In the case of B7, the binding result is listed as “binds”.

B8: SC16.18 (antibody, V domains shown)
VH: EVKLEESGGGLVQPGESMKLSCAASGFTFSDAWMDWVRQSPEKGLEWVAEIRNKANNHATYYAESVKGKFTISRDDSKSRVYLQMNNLRAADTGIYYCTAYSNFAYWGQGTLVTVST
VL: DIQMTQTTSSLSASLGDRVTISCRASQNIINYLNWYQQKPDGTVKLLIYYTSRLHSGVPSRFSGSGSGTDYSLTISNLEPEDIATYYCQQYSERPYTFGGGTKLEIK
notes: as for B1
Consider B8, for which the binding result is listed as “binds”.

B9: SC16.41 (antibody, V domains shown)
VH: B8 VH with P14F, E16G, A63P, K69R, A91E, A100G, N103S, T117A
VL: B8 VL with N28D, I29V, G68R
notes: as for B1
Take B9: the binding result is on record as “binds”.

B10: SC16.148 (antibody, V domains shown)
VH: QIQLVQSGPELKKPGETVKISCKASGYTLTNYGMNWVKQAPGKGLKWMGWINTYTGEPTYADDFKGRFAFSLETSARIVYLQINNLKNEDTATYFCAKYEAHEGFVYWGQGTLVTVSA
VL: QIVLTQSPAIMSASPGEKVTMTCSASSSVSYMYWYQQKPGSSPRLLIYDTSNLASGVPVRFSGSGSGTSYSLTISRMEAEDTATYYCQEWSNNPLTFGDGTKLELK
notes: as for B1
With B10, the binding result is reported as “binds”.

B11: SC16.5 (antibody, V domains shown)
VH: QVTLKESGPGILQPSQTLSLTCSFSGFSLSTSGMGVGWIRQPSGEGLEWLADIWWDDNKYYNPSLKSRLTISKDTSSNQVFLKITSVDTADTATYYCARRVNYVYDPYYAMDYWGQGTSVTVSS
VL: QIVLTQSPAIMSASPGEKVTMTCSASSSVSYMHWYQQKSGTSPKRWIYDTSKLASGVPARFSGSGSGTSYSLTISSMEAEDAATYYCQQWTRNPLTFGAGTKLELK
notes: as for B1
In the case of B11, the binding result is reported as “binds”.

B12: SC16.25 (antibody, V domains shown)
VH: B11 VH with A51T, K83N, V104Y
VL: B11 VL with T50S, T91S, R92S
notes: as for B1
As for B12, the binding result is reported as “binds”.

B13: SC16.3 (antibody, V domains shown)
VH: QVTLKESGPGILQPSQTLSLTCSFSGFSLSTSGMGVGWIRQPSGKGLEWLAHIWWDDVKRYNPALKSRLTISKDTSSSQVFLKIASVDTADTATYYCARIADYGGDYYAMDYWGQGTSVTVSS
VL: QIVLTQSPAIMSVSLGERVTMTCTASSSVSSSYLHWYQQKPGSSPKLWIYSTSNLASGVPARFSGSGSGTSYFFTISSMEAEDAATYYCHQYHRSPFTFGAGTKLKIR
notes: as for B1
In the case of B13, the binding result is given as “binds”.

B14: SC16.10 (antibody, V domains shown)
VH: QVTLKESGPGILQSSQTLSLTCSFSGFSLSTSGMGVGWIRQPSGKGLEWLAHIWWDDVKRYNPVLKSRLTISKDTSSSQVFLKIASVDTADTATYYCARLVDDLYYFDYWGQGTTLTVSS
VL: B13 VL with V13A, A61T, F73S, F74L, A101S, K106E, R108K
notes: as for B1
For the molecule B14, the binding result is given as “binds”.

B15: SC16.8 (antibody, V domains shown)
VH: QAQLQQSGAELVRPGTSVKVSCKASGYAFTNYLIEWVKQRPGQGLEWIGVINPGTGGTNYNENFKGKATLTADKSSSTAYMQLSSLTSDDSAVYFCARSPYDYHEGAMDYWGQGTSVTVSS
VL: EIQMTQSPSSMSASLGDRITITCQATQDIVKNLNWYQQKPGKPPSFLIYYAIELAEGVPSRFSGSGSGSDYSLTISNLESEDFADYYCLQFYEFPFTFGAGTKLELK
notes: as for B1
As for B15, the binding result is on record as “binds”.

B16: SC16.126 (antibody, V domains shown)
VH: QVQMKESGPGLVAPSQSLSITCTVSGSSLTNYGVHWVRQPPGKGLEWLGVIWAGGSTNYNSALMSRLSISKDNSKSQVFLKMNSLQTDDTAMYYCARDWEGWFAYWGQGTLVTVSA
VL: DIQMNQSPSSLSASLGDTITITCHASQNINVWLSWYQQKPGNIPKLLIYKASNLHTGVPSRFSGSGSGTGFTLTISSLQPEDIATYYCQQGQSYPFTFGSGTKLEIK
notes: as for B1
For B16, the binding result is listed as “binds”.

B17: SC16.149 (antibody, V domains shown)
VH: B16 VH with M4L, T23A, S27F, N31S, Y32F, N60Y, K71I
VL: B16 VL with N53H, F62L, K103T
notes: as for B1
With B17, the binding result is “binds”.

These data come from patent publication US20180044415A1 (AbbVie / Abbott, published 2018).
